What was measured:
[1] = biological target: T1, human MASP-2A (catalytically inactive human MASP-2, Ser618 to Ala618) (human, UniProt O00187 16-686); experiment: Biacore, microscale-expressed scFv on MASP-2A coated CM5 chip
T1 construct: the ELISA and Biacore methods say only 'MASP-2A', so a tag may have been present; also called huMASP2A; huMASP-2A
Experimental: Therefore, three different scFv libraries were constructed by PCR where the amino acid positions 1, 2 and 3 were randomized to the set of all possible 20 amino acids using degenerate codons. After cloning the libraries, microscale expression was performed and scFv binding was monitored on a MASP-2A coated CM5 chip (not shown).

[2] = biological target: T1, human MASP-2A (catalytically inactive …); experiment: ELISA, purified scFv titrated on physically adsorbed human MASP-2A
human MASP-2 [3] = biological target: T2, human MASP-2 (human, UniProt O00187 16-686); experiment: cell-based or functional assay
human MASP-2 [4] = biological target: T2, human MASP-2; experiment: cell-based or functional assay; remark: listed apart in the source
[5] = biological target: T3, African Green monkey MASP-2 (in African Green monkey serum) (African Green monkey); experiment: cell-based or functional assay
[6] = biological target: T1, human MASP-2A (catalytically inactive …); experiment: ELISA on adsorbed human MASP-2A, purified scFv monomer
[7] = biological target: T1, human MASP-2A (catalytically inactive …); experiment: SPR (Biacore), MASP-2A amine coupled to CM5 chip, scFv monomer in solution
human MASP-2 [8] = biological target: T2, human MASP-2; experiment: cell-based or functional assay; remark: listed apart in the source
human MASP-2 [9] = biological target: T2, human MASP-2; experiment: cell-based or functional assay; remark: listed apart in the source
human MASP-2 [10] = biological target: T2, human MASP-2; experiment: cell-based or functional assay; remark: listed apart in the source
[11] = biological target: T3, African Green monkey MASP-2 (in African …); experiment: cell-based or functional assay; remark: listed apart in the source
[12] = biological target: T1, human MASP-2A (catalytically inactive …); experiment: SPR (Biacore), scFv captured by anti-cMyc antibody, MASP-2A in solution
human MASP-2 [13] = biological target: T2, human MASP-2; experiment: cell-based or functional assay; remark: listed apart in the source
[14] = biological target: T3, African Green monkey MASP-2 (in African …); experiment: cell-based or functional assay; remark: listed apart in the source
[15] = biological target: rat MASP-2 (in rat serum) (rat, UniProt Q9JJS8 20-685); experiment: cell-based or functional assay
[16] = biological target: T1, human MASP-2A (catalytically inactive …); experiment: titration ELISA on coated human MASP-2A ('Binding affinity'), scFv
human MASP-2 [17] = biological target: T2, human MASP-2; experiment: cell-based or functional assay; remark: listed apart in the source

T2 sequence (O00187 16-686): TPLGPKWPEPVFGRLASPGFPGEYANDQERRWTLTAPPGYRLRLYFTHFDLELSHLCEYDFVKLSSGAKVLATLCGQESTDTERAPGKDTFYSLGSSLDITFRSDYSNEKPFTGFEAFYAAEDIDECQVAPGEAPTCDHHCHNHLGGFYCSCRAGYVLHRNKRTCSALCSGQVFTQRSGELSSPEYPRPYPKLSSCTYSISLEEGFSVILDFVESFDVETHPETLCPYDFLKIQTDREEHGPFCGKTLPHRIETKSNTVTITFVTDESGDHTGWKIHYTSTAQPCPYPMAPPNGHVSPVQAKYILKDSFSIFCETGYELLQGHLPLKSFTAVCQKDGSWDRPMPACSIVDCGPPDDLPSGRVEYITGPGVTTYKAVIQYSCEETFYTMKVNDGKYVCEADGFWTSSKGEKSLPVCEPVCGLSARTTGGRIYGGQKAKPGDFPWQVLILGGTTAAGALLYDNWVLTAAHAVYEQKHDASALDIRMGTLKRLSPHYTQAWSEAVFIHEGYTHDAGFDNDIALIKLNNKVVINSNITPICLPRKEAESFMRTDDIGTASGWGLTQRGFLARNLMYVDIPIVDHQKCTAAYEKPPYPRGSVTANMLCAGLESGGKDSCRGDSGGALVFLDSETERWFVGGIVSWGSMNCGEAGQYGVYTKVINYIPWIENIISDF
T1 sequence (O00187 16-686 S633A): as the sequence (O00187 16-686) above, with S618A counted along it
Sequence of rat MASP-2 (in rat serum) (Q9JJS8 other isoform, or with tags, fused parts or gaps limits assumed): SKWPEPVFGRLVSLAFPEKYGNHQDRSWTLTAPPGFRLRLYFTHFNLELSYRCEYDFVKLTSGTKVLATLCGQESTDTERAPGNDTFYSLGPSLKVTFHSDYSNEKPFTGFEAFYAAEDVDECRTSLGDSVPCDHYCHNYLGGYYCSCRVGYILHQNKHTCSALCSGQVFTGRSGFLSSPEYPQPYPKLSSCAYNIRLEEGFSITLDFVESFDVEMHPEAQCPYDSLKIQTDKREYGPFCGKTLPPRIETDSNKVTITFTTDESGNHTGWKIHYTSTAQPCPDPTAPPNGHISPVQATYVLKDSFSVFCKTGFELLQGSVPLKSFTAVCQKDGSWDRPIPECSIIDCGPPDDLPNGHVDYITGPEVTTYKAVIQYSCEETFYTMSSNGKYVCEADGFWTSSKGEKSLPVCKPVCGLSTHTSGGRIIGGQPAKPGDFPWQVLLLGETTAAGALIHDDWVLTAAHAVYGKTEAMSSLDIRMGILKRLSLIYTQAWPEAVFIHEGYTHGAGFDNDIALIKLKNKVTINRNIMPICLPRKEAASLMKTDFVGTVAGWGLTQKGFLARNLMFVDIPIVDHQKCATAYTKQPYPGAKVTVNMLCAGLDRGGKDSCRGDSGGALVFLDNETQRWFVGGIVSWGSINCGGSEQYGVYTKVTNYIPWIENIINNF

B1: scFv mutagenesis clone #90 of 17D20 (scFv)
scFv: QVTLKESGPVLVKPTETLTLTCTVSGFSLSRGKMGVSWIRQPPGKALEWLAHIFSSDEKSYRTSLKSRLTISKDTSKNQVVLTMTNMDPVDTATYYCARIRPGGIDYWGQGTLVTVSSKLSGSASAPKLEEGEFSEARVQPVLTQPPSVSVSPGQTASITCSGDKLGDKFAYWYQQKPGHSPVLVIYQDNKRPSGIPGRFSGSNSGNTATLTISGTQAMDEADYYCQAWDSSTAVFGTGTKVTVLAAAGSEQKLISEEDLNSHHHHHH
[1]
  binding result: binds

B2: scFv mother clone 17N16 (scFv)
scFv: QVQLQQSGPGLVKPSQTLSLTCAISGDSVSSTSAAWNWIRQSPSRGLEWLGRTYYRSKWYNDYAVSVKSRITINPDTSKNQFSLQLNSVTPEDTAVYYCARDPFGVPFDIWGQGTMVTVSSKLSGSASAPKLEEGEFSEARVSYVLTQPPSVSVAPGQTARITCGGNNIGSKNVHWYQQKPGQAPVLVVYDDSDRPSGIPERFSGSNSGNTATLTVSRVEAGDEADYYCQVWDTTTDHVVFGGGTKLTVLAAAGSEQKLISEEDLNSHHHHHH
notes: also called 17N16mc; 17N16m
[2]
  EC50 (read off the curve): ~0.9 nM
Human MASP-2 [3]
  C3 convertase assay using 1% human serum, IC50 (first experiment): 36.2 nM
  C3 convertase assay using 1% human serum, IC50 (second experiment): 77.6 nM
Human MASP-2 [4]
  Functional IC50, C3b deposition, human serum Exp #1: 15.4 nM
  Functional IC50, C3b deposition, human serum Exp #2: 65.4 nM
  Functional IC50, C3b deposition, human serum Exp #3: 24.8 nM
  Functional IC50, C3b deposition, human serum Exp #4: 19.2 nM
[5]
  Functional IC50, C3b deposition, non-human primate serum Exp #1: 95.6 nM
  Functional IC50, C3b deposition, non-human primate serum Exp #2: 58.8 nM
[6]
  Kd: 18.9 nM
[7]
  Kd: 3560 nM
Human MASP-2 [8]
  1% human serum C3 assay IC50: 68 nM
Human MASP-2 [9]
  Inhibitory activity in Human Serum IC50 (C3b deposition, 0.5% human serum): 15.4 nM
Human MASP-2 [10]
  C3 Assay IC50 in dilute serum (1%), human serum Exp #1: 19 nM
  C3 Assay IC50 in dilute serum (1%), human serum Exp #2: 24 nM
  C3 Assay IC50 in dilute serum (1%), human serum Exp #3: 65 nM
  C3 Assay IC50 in dilute serum (1%), human serum mean: 36 nM
[11]
  C3 Assay IC50, non-human primate serum Exp #1: 95 nM
  C3 Assay IC50, non-human primate serum Exp #2: 58 nM
  C3 Assay IC50, non-human primate serum mean: 76 nM
[12]
  Kd: 1.68 nM
Human MASP-2 [13]
  IC50, C3c release, 1% human serum (first experiment): 65.3 nM
  IC50, C3c release, 1% human serum (second experiment): 73.5 nM
[14]
  IC50, C3c release, 0.2% African Green serum (first experiment): 92.9 nM
  IC50, C3c release, 0.2% African Green serum (second experiment): 81.4 nM
[15]
  IC50, C3c release, 0.375% rat serum (second experiment): 196 nM
[16]
  Kd: 18.9 nM
Human MASP-2 [17]
  Complement assay IC50: 8.8 nM
